Results reported in patent publication US6867012B2, “Determination method of biological component and reagent kit used therefor” (Toyo Boseki Kabushiki Kaisha, priority 2000, dated 2005).

Experiment: Activity measurement of betaine-homocysteine methyltransferase (methionine produced, absorbance at 520 nm)
Type: biochemical
Details: 37° C., 1 h, pH 7.5; 1 U = 1 μmole of methionine per 1 h
Protocol: • reagent A 50 mM potassium phosphate buffer (pH 7.5) • reagent B 100 mM DL-homocysteine solution (dissolved in reagent A) • reagent C 100 mM betaine (dissolved in reagent A) • reagent D 0.2% aqueous pentacyanoanmineiron(III) sodium solution • reagent E acetic acid • reagent F 10% aqueous sodium nitrite solution <Measurement Conditions>
After the completion of the reaction, reagent D (5 ml) is added and the mixture is stirred. After standing for 1 min, 1 ml each of reagent E and reagent F were added in this order and the mixture is stirred. After standing for 30 min at room temperature, absorbance at 520 nm is measured. Using L-methionine dissolved in reagent A instead of the enzyme solution, absorbance is measured in the same manner and a standard curve is drawn, from which the amount of methionine produced by the enzymatic reaction is measured.

B1: betaine-homocysteine methyltransferase: Human-derived enzyme (EC 2.1.1.5) expressed from human liver cDNA in E. coli BL21(DE3) and purified (protein, UniProt Q93088 1-406, looked up)
Betaine--homocysteine …: MPPVGGKKAKKGILERLNAGEIVIGDGGFVFALEKRGYVKAGPWTPEAAVEHPEAVRQLHREFLRAGSNVMQTFTFYASEDKLENRGNYVLEKISGQEVNEAACDIARQVADEGDALVAGGVSQTPSYLSCKSETEVKKVFLQQLEVFMKKNVDFLIAEYFEHVEEAVWAVETLIASGKPVAATMCIGPEGDLHGVPPGECAVRLVKAGASIIGVNCHFDPTISLKTVKLMKEGLEAARLKAHLMSQPLAYHTPDCNKQGFIDLPEFPFGLEPRVATRWDIQKYAREAYNLGVRYIGGCCGFEPYHIRAIAEELAPERGFLPPASEKHGSWGSGLDMHTKPWVRARARKEYWENLRIASGRPYNPSMSKPDGWGVTKGTAELMQQKEATTEQQLKELFEKQKFKSQ
Q: For B1, which “specific activity of purified enzyme standard product” value is on record?
A: about 2.1 U/mg protein
